# Measured values from patent publication US6835378B2, “Method and compositions for inhibiting thrombin-induced coagulation” (The Texas A&M University System University, priority 2001, dated 2004).
# Entries after “also recorded” stand apart in the source; their conditions may differ.
# Tested on: contortrixobin digestion of Fg
# Test: Fibrinopeptide B release by contortrixobin, HPLC
# Type: biochemical, human
# Details: 1:5 ratio of Fg to rSdrG(50-597) (1.5 μM), 60 min
# Description: Superimposed chromatograms show the amount of fibrinopeptide released when the Fg-contortrixobin sample has no SdrG present (upper curve) and when the Fg-contortrixobin sample is incubated with 1.5 μM rSdrG(50-597) (lower curve) at the 60 min time point.
# Analysis of Fibrinopeptide B Release by HPLC—As in chapter two, we monitored the fibrinopeptide release in the presence of SdrG and the β-fibrinogenase contortrixobin. The HPLC chromatograms shown in FIG. 10 show the expected fibrinopeptide release following digestion of Fg with contortrixobin superimposed with the fibrinopeptide release when Fg and contortrixobin are incubated with rSdrG(50-597). […] This is most likely because FpA is still intact on the Fg molecule, thus contortrixobin is not as effective at cleaving Fg due to steric hindrance from FpA.
molecule,measurement,setting,value
"rSdrG(50-597): recombinant His-tagged A region (residues 50-597) of SdrG, a fibrinogen-binding MSCRAMM from S. epidermidis (protein) HHHHHHAEENTVQDVKDSNMDDELSDSNDQSSNEEKNDVINNSQSINTDDDNQIKKEETNSNDAIENRSKDITQSTTNVDENEATFLQKTPQDNTQLKEEVVKEPSSVESSNSSMDTAQQPSHTTINSEASIQTSDNEENSRVSDFANSKIIESNTESNKEENTIEQPNKVREDSITSQPSSYKNIDEKISNQDELLNLPINEYENKVRPLSTTSAQPSSKRVTVNQLAAEQGSNVNHLIKVTDQSITEGYDDSDGIIKAHDAENLIYDVTFEVDDKVKSGDTMTVNIDKNTVPSDLTDSFAIPKIKDNSGEIIATGTYDNTNKQITYTFTDYVDKYENIKAHLKLTSYIDKSKVPNNNTKLDVEYKTALSSVNKTITVEYQKPNENRTANLQSMFTNIDTKNHTVEQTIYINPLRYSAKETNVNISGNGDEGSTIIDDSTIIKVYKVGDNQNLPDSNRIYDYSEYEDVTNDDYAQLGNNNDVNINFGNIDSPYIIKVISKYDPNKDDYTTIQQTVTMQTTINEYTGEFRTASYDNTIAFSTSSGQGQGDLPPE",FpB release by contortrixobin,,effectively inhibit FpB release; also recorded: decrease in the amount of FpB released
same,FpB release by contortrixobin,listed as rSdrG (50-597),A decrease in the amount of FpB release
